Stoichiometry N data for 1 substance are collected here from PMC11187536.

The target of assay [1] is soluble variant surface glycoprotein (sVSG) MITat1.2 (Trypanosoma brucei (endogenous in cell line 13-90)). Briefly: SEC; Superdex 200 Increase 10/300 GL, 50 mM HEPES pH 7.4, 150 mM NaCl, 100 µl sample at 5 mg/ml, 1 ml/min; self-association, dimer. In general terms: Size exclusion chromatography separates by hydrodynamic size, large species first.
Assay [2] has the same target. Briefly: SEC; Superdex 200 Increase 10/300 GL, 20 mM sodium acetate pH 5.2, 150 mM NaCl, 100 µl sample at 5 mg/ml, 1 ml/min; self-association, dimer.

Turning to “soluble variant surface glycoprotein (sVSG) MITat1.2 (natural protein)”, the stoichiometry N in assay [1] and in assay [2] was 2 each time.
